Molecular target: N protein WT (SARS-CoV-2, UniProt P0DTC9 1-419)
Experiment: mass photometry
Conditions: protein: recombinant; tags: 6xHis-SUMO tag cleaved by Ulp1; chain copies: 12; hairpin

B1: SL8 RNA (structured_RNA)
RNA: GAUGGCACUUGUGGCUUAGUAGAAGUUGAAAAAGGCGUUUUGCCUCAACUUGAACAGCCCUAUGUGUUCAUC
- binding result: binds
